Experiments:
[1] = molecular target: T1, Purified recombinant human CD26 (rhDipeptidyl peptidase IV), R&D Systems CAT #1180-SE (human, UniProt P27487 29-766); experiment: SPR (Biacore)
T1 construct: Bought recombinant protein; also called hu-CD26; soluble human CD26

[2] = molecular target: T2, human CD26-derived 13 mer peptide 67 (human); experiment: peptide microarray
T2 construct: also called LPSYRITWTGKED
T2 peptide: LPSYRITWTGKED
Method: (§1) The overnight incubation was followed by three washings with each of PBS buffer pH 7.5 and water. The microarrays were then scanned using ArrayWorx-Microarray Scanner.
(§2) The SPOT recognition software package ArrayPro was used for data analysis. The mean of signal intensities from 3 identical subarrays on each microarray image was used for data evaluation.

[3] = molecular target: T3, human CD26-derived 13 mer peptide 71 (human); experiment: peptide microarray
T3 peptide: TGKEDIIYNGITD
Method: as §1, §2

[4] = molecular target: T4, human CD26-derived 13 mer peptide 87 (human); experiment: peptide microarray
T4 peptide: GTFLAYAQFNDTE
Method: as §1, §2

[5] = molecular target: T5, human CD26-derived 13 mer peptide 88 (human); experiment: peptide microarray
T5 peptide: FLAYAQFNDTEVP
Method: as §1, §2

[6] = molecular target: T6, human CD26-derived 13 mer peptide 90 (human); experiment: peptide microarray
T6 peptide: AQFNDTEVPLIEY
Method: as §1, §2

[7] = molecular target: T7, human CD26-derived 13 mer peptide 96 (human); experiment: peptide microarray
T7 peptide: YSFYSDESLQYPK
Method: as §1, §2

[8] = molecular target: T8, human CD26-derived 13 mer peptide 100 (human); experiment: peptide microarray
T8 peptide: LQYPKTVRVPYPK
Method: as §1, §2

[9] = molecular target: T9, human CD26-derived 13 mer peptide 102 (human); experiment: peptide microarray
T9 peptide: KTVRVPYPKAGAV
Method: as §1, §2

[10] = molecular target: T10, human CD26-derived 13 mer peptide 103 (human); experiment: peptide microarray
T10 peptide: VRVPYPKAGAVNP
Method: as §1, §2

[11] = molecular target: T11, human CD26-derived 13 mer peptide 104 (human); experiment: peptide microarray
T11 peptide: VPYPKAGAVNPTV
Method: as §1, §2

[12] = molecular target: T12, human CD26-derived 13 mer peptide 110 (human); experiment: peptide microarray
T12 peptide: VKFFVVNTDSLSS
Method: as §1, §2

[13] = molecular target: T13, human CD26-derived 13 mer peptide 111 (human); experiment: peptide microarray
T13 peptide: FFVVNTDSLSSVT
Method: as §1, §2

[14] = molecular target: T14, human CD26-derived 13 mer peptide 112 (human); experiment: peptide microarray
T14 peptide: VVNTDSLSSVTNA
Method: as §1, §2

[15] = molecular target: T15, human CD26-derived 13 mer peptide 116 (human); experiment: peptide microarray
T15 peptide: SVTNATSIQITAP
Method: as §1, §2

[16] = molecular target: T16, human CD26-derived 13 mer peptide 117 (human); experiment: peptide microarray
T16 peptide: TNATSIQITAPAS
Method: as §1, §2

[17] = molecular target: T17, human CD26-derived 13 mer peptide 118 (human); experiment: peptide microarray
T17 peptide: ATSIQITAPASML
Method: as §1, §2

[18] = molecular target: T18, human CD26-derived 13 mer peptide 119 (human); experiment: peptide microarray
T18 peptide: SIQITAPASMLIG
Method: as §1, §2

[19] = molecular target: T19, human CD26-derived 13 mer peptide 122 (human); experiment: peptide microarray
T19 peptide: PASMLIGDHYLCD
Method: as §1, §2

[20] = molecular target: T20, human CD26-derived 13 mer peptide 9 (human); experiment: peptide microarray
T20 peptide: SDHEYLYKQENNI
Method: as §1, §2

[21] = molecular target: T21, human CD26-derived 13 mer peptide 10 (human); experiment: peptide microarray
T21 peptide: HEYLYKQENNILV
Method: as §1, §2

[22] = molecular target: T22, human CD26-derived 13 mer peptide 15 (human); experiment: peptide microarray
T22 peptide: ILVFNAEYGNSSV
Method: as §1, §2

[23] = molecular target: T23, human CD26-derived 13 mer peptide 18 (human); experiment: peptide microarray
T23 peptide: EYGNSSVFLENST
Method: as §1, §2

[24] = molecular target: T24, human CD26-derived 13 mer peptide 21 (human); experiment: peptide microarray
T24 peptide: VFLENSTFDEFGH
Method: as §1, §2

[25] = molecular target: T25, human CD26-derived 13 mer peptide 22 (human); experiment: peptide microarray
T25 peptide: LENSTFDEFGHSI
Method: as §1, §2

[26] = molecular target: T26, human CD26-derived 13 mer peptide 23 (human); experiment: peptide microarray
T26 peptide: NSTFDEFGHSIND
Method: as §1, §2

[27] = molecular target: T27, human CD26-derived 13 mer peptide 24 (human); experiment: peptide microarray
T27 peptide: TFDEFGHSINDYS
Method: as §1, §2

[28] = molecular target: T28, human CD26-derived 13 mer peptide 25 (human); experiment: peptide microarray
T28 peptide: DEFGHSINDYSIS
Method: as §1, §2

[29] = molecular target: T29, human CD26-derived 13 mer peptide 26 (human); experiment: peptide microarray
T29 peptide: FGHSINDYSISPD
Method: as §1, §2

[30] = molecular target: T30, human CD26-derived 13 mer peptide 28 (human); experiment: peptide microarray
T30 peptide: INDYSISPDGQFI
Method: as §1, §2

[31] = molecular target: T31, human CD26-derived 13 mer peptide 43 (human); experiment: peptide microarray
T31 peptide: YDIYDLNKRQLIT
Method: as §1, §2

[32] = molecular target: T32, human CD26-derived 13 mer peptide 44 (human); experiment: peptide microarray
T32 peptide: IYDLNKRQLITEE
Method: as §1, §2

[33] = molecular target: T33, human CD26-derived 13 mer peptide 45 (human); experiment: peptide microarray
T33 peptide: DLNKRQLITEERI
Method: as §1, §2

[34] = molecular target: T34, human CD26-derived 13 mer peptide 46 (human); experiment: peptide microarray
T34 construct: also called NKRQL1TEERIPN
T34 peptide: NKRQLITEERIPN
Method: as §1, §2

[35] = molecular target: T35, human CD26-derived 13 mer peptide 47 (human); experiment: peptide microarray
T35 peptide: RQLITEERIPNNT
Method: as §1, §2

[36] = molecular target: T36, human CD26-derived 13 mer peptide 60 (human); experiment: peptide microarray
T36 peptide: YVWNNDIYVKIEP
Method: as §1, §2

[37] = molecular target: T37, human CD26-derived 13 mer peptide 61 (human); experiment: peptide microarray
T37 peptide: WNNDIYVKIEPNL
Method: as §1, §2

[38] = molecular target: T38, human CD26-derived 13 mer peptide 62 (human); experiment: peptide microarray
T38 peptide: NDIYVKIEPNLPS
Method: as §1, §2

[39] = molecular target: human CD26 on the cell surface (human, UniProt P27487 1-766); experiment: cell-based or functional assay
Sequence of human CD26 on the cell surface (P27487 whole entry): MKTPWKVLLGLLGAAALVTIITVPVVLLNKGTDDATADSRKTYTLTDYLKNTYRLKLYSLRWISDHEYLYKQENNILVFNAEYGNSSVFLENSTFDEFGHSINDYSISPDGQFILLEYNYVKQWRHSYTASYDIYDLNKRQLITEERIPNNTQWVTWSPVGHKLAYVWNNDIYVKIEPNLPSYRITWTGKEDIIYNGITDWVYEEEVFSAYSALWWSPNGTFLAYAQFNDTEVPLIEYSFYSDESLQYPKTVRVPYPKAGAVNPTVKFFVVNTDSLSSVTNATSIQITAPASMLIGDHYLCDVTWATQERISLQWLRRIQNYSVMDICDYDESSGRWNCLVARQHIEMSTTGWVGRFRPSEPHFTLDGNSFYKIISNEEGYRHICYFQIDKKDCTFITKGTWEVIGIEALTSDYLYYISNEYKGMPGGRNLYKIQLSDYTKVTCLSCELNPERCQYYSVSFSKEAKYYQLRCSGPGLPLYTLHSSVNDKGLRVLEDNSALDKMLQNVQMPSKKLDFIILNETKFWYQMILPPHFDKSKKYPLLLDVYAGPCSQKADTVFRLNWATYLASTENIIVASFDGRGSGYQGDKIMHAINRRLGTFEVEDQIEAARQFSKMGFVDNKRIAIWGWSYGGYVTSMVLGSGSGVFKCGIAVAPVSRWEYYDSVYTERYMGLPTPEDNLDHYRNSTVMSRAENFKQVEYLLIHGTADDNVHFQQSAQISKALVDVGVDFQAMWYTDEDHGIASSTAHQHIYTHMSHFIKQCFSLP

T1 sequence (P27487 29-766 limits assumed): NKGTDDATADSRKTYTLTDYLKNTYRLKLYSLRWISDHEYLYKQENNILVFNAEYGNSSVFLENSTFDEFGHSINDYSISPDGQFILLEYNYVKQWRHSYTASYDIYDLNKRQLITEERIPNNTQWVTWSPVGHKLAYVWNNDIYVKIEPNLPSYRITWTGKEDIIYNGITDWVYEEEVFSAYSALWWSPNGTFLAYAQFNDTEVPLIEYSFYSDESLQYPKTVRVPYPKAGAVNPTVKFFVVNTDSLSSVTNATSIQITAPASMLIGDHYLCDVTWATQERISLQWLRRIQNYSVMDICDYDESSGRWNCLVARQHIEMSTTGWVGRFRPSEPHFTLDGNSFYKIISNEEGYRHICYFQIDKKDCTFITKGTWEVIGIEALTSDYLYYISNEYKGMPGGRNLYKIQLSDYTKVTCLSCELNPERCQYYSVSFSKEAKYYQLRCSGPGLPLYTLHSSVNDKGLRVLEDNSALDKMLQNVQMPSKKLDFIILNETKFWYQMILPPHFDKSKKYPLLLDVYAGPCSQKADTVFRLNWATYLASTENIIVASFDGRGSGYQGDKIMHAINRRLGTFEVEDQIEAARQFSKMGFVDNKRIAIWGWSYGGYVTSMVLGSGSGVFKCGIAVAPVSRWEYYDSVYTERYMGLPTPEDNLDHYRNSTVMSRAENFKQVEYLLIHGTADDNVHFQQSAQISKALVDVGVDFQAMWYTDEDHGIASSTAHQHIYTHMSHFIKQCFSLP

B1: mouse monoclonal antibody CM03 (14D10) (antibody, V domains shown)
VH: QVKLQESGPGLVQPSQTLSITCTVSGFSLTTYGVHWVRQSPGKGLEWLGVIWGGGRTDYDAAFISRLSISKDNSKSQVFFKMNSLQANDTAIYYCVRNRHDWFDYWGQGTTVTVSS
VL: DIQMTQSPSSLSASLGDRVTITCSASQGIRNSLNWYQQKPDGAVKLLIYYSSNLHSGVPSRFSGSGSGTDFSLTISNLEPEDIATYYCQQSIKLPFTFGSGTKLEIK
notes: Mouse monoclonal antibody; also called murine MAb CM03
Question: For B1, which Kd [1] is on record?
Answer: Its Kd is 1.63 nM.

B2: rhuMAb 412 (antibody, human IgG1, V domains shown)
VH: EVQLVQSGGGVKQPGETLRLTCTASGFSLTTYGVHWVRQAPGKGLEWVGVIWGDGRTDYDAAFMSRVTISKDTSKSTAYLQMNSLRAEDTAVYYCMRNRHDWFDYWGQGTTVTVSS
VL: EIEMTQSPSSLSVSAGERATISCSASQDIRNSLNWYQQKPGQAPRLLIYYSSNLHTGVPARFSGSGSGTDFTLTISRLEPEDVAIYYCQQSNKLPLTFGSGTKVEIKR
notes: X385 VH and X380 VL with human IgG1 and human kappa constant regions; also called X412
Question: Which results are given for B2?
Answer: Mean Signal Value [2]: 0; Mean Signal Value [3]: 0; Mean Signal Value [4]: 0; Mean Signal Value [5]: 0; Mean Signal Value [6]: 0; Mean Signal Value [7]: 0; Mean Signal Value [8]: 0; Mean Signal Value [9]: 0; Mean Signal Value [10]: 0; Mean Signal Value [11]: 0; Mean Signal Value [12]: 0; Mean Signal Value [13]: 0; Mean Signal Value [14]: 0; Mean Signal Value [15]: 0; Mean Signal Value [16]: 0; Mean Signal Value [17]: 0; Mean Signal Value [18]: 0; Mean Signal Value [19]: 0; Mean Signal Value [20]: 0; Mean Signal Value [21]: 0; Mean Signal Value [22]: 0; Mean Signal Value [23]: 0; Mean Signal Value [24]: 0; Mean Signal Value [25]: 0; Mean Signal Value [26]: 0; Mean Signal Value [27]: 0; Mean Signal Value [28]: 0; Mean Signal Value [29]: 0; Mean Signal Value [30]: 0; Mean Signal Value [31]: 0; Mean Signal Value [32]: 0; Mean Signal Value [33]: 0; Mean Signal Value [34]: 0; Mean Signal Value [35]: 0; Mean Signal Value [36]: 0; Mean Signal Value [37]: 0; Mean Signal Value [38]: 0; percent inhibition, MTT assay, Jurkat CD26+ cells, 0.05 ug/ml [39]: 0.3%; percent inhibition, MTT assay, Jurkat CD26+ cells, 0.25 ug/ml [39]: 5.4%; percent inhibition, MTT assay, Jurkat CD26+ cells, 5 ug/ml [39]: 23.6%

Source: patent US20070105771A1 (Y S THERAPEUTICS, published 2007)
